Assay results taken from patent US20210179729A1 (University of California, published 2021).

What was measured:
[1] = molecular target: CD3 on the surface of T-cells (Jurkat reporter cells) (UniProt P07766); experiment: cell-based or functional assay
[2] = molecular target: CDCP1 on human cells (MCF10A KRASG12V, HPAC) (human) (UniProt Q9H5V8); experiment: cell-based or functional assay
[3] = molecular target: T1, CDCP1 extracellular domain displayed on the surface of HEK293 (T-Rex-293) cells (human, UniProt Q9H5V8 30-667); experiment: flow cytometry, Fab on CDCP1 Cell
T1 construct: extracellular domain; also called CDCP1 Cell; not shown: fluorescent protein expression reporter and generic single-pass transmembrane domain
T1 sequence (looked up): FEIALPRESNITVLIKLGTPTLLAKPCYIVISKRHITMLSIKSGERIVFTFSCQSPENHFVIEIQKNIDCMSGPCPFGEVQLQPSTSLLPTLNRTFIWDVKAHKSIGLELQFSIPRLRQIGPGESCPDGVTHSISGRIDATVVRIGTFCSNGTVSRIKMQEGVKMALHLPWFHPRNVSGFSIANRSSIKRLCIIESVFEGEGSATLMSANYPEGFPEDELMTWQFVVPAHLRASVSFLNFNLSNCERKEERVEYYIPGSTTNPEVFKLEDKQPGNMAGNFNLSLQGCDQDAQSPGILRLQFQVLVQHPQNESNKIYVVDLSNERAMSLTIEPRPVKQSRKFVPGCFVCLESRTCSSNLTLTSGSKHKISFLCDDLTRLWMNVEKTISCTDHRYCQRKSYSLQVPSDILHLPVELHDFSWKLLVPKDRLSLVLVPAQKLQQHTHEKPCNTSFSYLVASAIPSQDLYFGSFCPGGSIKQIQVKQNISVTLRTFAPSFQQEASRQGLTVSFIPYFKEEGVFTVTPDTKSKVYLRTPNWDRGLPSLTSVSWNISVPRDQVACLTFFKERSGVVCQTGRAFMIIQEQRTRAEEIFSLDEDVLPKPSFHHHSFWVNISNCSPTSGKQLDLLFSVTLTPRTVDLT

[4] = molecular target: T2, Cynomolgus monkey CDCP1 (Cynomolgus monkey, UniProt A0A2K5VLA8 30-667); experiment: ELISA; column head 'ELISA~EC50 Kd (nM)'
T2 construct: construct not described
T2 sequence: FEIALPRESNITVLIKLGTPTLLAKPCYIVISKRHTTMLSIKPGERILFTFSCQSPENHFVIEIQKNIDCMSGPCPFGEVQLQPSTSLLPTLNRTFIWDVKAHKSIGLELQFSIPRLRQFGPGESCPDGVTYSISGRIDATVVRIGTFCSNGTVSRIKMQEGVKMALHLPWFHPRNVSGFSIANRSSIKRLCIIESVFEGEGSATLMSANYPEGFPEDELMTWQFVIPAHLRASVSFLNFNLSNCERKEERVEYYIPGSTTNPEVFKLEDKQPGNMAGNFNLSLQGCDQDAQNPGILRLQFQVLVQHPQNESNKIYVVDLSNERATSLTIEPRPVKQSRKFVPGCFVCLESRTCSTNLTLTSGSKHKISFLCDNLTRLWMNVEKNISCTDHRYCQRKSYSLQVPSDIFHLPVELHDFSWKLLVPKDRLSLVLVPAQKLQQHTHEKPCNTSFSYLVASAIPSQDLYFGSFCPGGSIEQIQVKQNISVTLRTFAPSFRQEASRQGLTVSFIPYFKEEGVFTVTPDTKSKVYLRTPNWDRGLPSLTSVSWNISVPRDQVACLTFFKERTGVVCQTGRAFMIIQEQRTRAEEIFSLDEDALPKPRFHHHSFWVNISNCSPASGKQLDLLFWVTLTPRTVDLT

[5] = molecular target: T3, Human CDCP1 (human, UniProt Q9H5V8 30-667, limits assumed); experiment: ELISA; column head 'ELISA~EC50 Kd (nM)'
T3 construct: also called CUB domain-containing protein 1; SIMA135
T3 sequence (looked up): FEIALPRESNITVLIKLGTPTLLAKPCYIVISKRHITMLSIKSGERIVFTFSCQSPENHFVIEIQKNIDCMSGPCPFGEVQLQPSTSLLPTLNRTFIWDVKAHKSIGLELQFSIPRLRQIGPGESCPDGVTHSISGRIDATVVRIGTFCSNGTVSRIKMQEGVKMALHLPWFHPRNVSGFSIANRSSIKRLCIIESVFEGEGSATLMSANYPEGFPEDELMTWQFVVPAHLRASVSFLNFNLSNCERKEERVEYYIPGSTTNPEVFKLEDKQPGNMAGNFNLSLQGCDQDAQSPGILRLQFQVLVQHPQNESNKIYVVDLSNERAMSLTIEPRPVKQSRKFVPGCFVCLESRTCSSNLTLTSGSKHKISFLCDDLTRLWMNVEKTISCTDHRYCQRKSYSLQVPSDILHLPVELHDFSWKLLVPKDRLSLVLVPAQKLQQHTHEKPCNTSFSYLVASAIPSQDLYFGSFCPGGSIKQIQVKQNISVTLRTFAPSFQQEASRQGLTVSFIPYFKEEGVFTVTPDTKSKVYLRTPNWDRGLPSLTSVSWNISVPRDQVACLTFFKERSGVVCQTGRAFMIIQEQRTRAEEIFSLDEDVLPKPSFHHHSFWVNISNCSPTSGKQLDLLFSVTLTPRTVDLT

[6] = molecular target: T4, CDCP1 aas 30-367 (human, UniProt Q9H5V8 30-367); experiment: ELISA, CDCP1 specificity on fragments
T4 construct: range 30-367
T4 sequence (looked up): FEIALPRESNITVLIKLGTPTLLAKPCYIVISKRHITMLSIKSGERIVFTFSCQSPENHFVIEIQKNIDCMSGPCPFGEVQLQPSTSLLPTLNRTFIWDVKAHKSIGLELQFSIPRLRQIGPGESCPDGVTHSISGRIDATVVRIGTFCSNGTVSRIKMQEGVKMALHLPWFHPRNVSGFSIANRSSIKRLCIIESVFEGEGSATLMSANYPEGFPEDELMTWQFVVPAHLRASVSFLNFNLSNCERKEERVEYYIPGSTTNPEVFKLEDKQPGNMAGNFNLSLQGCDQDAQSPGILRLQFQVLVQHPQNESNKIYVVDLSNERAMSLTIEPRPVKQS

Sequence of CD3 on the surface of T-cells (Jurkat reporter cells) (P07766 23-207): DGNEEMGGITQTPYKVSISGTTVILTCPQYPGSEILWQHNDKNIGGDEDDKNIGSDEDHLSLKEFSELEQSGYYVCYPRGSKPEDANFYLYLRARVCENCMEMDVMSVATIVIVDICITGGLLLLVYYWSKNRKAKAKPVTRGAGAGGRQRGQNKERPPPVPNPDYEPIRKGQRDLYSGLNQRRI

## CDCP1 BiTE (CDCP1-002 Fab genetically fused to OKT3 anti-CD3 scFv) (bispecific antibody)
[1]
  T-cell activation (NFAT-dependent GFP reporter, flow cytometry) in co-culture with HPAC cells at 1 nM BiTE: 75%
[2]
  T-cell activation (NFAT-dependent GFP reporter, flow cytometry) in co-culture with HPAC cells at 1 nM BiTE: 75%

B1: CDCP1-004 Fab (Fab, V domains shown)
VH: EVQLVESGGGLVQPGGSLRLSCAASGFNISYYYMHWVRQAPGKGLEWVASIYSSYGYTSYADSVKGRFTISADTSKNTAYLQMNSLRAEDTAVYYCARVYYGFDYWGQGTLVTVSS
VL: DIQMTQSPSSLSASVGDRVTITCRASQSVSSAVAWYQQKPGKAPKLLIYSASSLYSGVPSRFSGSRSGTDFTLTISSLQPEDFATYYCQQSYYVYPITFGQGTKVEIK
notes: Tested as Fab
[3]
  Flow Cytometry (MFI): 770 MFI
[4]
  EC50: 34.9 nM
[5]
  EC50: 2.37 nM

B2: CDCP1-005 Fab (Fab, V domains shown)
VH: EVQLVESGGGLVQPGGSLRLSCAASGFNISYYYIHWVRQAPGKGLEWVASIYPYYGSTYYADSVKGRFTISADTSKNTAYLQMNSLRAEDTAVYYCARAYYGFDYWGQGTLVTVSS
VL: DIQMTQSPSSLSASVGDRVTITCRASQSVSSAVAWYQQKPGKAPKLLIYSASSLYSGVPSRFSGSRSGTDFTLTISSLQPEDFATYYCQQSYWSFPITFGQGTKVEIK
notes: Tested as Fab
[3]
  Flow Cytometry (MFI): 870 MFI

B3: CDCP1-008 Fab (Fab, V domains shown)
VH: EVQLVESGGGLVQPGGSLRLSCAASGFNISSYYMHWVRQAPGKGLEWVASIYPYSGYTYYADSVKGRFTISADTSKNTAYLQMNSLRAEDTAVYYCARAYYAMDYWGQGTLVTVSS
VL: DIQMTQSPSSLSASVGDRVTITCRASQSVSSAVAWYQQKPGKAPKLLIYSASSLYSGVPSRFSGSRSGTDFTLTISSLQPEDFATYYCQQSYYVYPITFGQGTKVEIK
notes: Tested as Fab
[3]
  Flow Cytometry (MFI): 673 MFI
[4]
  EC50: 97.1 nM
[5]
  EC50: 76.2 nM

B4: CDCP1-003 Fab (Fab, V domains shown)
VH: EVQLVESGGGLVQPGGSLRLSCAASGFNISYYSMHWVRQAPGKGLEWVASISPYSGYTSYADSVKGRFTISADTSKNTAYLQMNSLRAEDTAVYYCARGYYALDYWGQGTLVTVSS
VL: DIQMTQSPSSLSASVGDRVTITCRASQSVSSAVAWYQQKPGKAPKLLIYSASSLYSGVPSRFSGSRSGTDFTLTISSLQPEDFATYYCQQYYYFYPFTFGQGTKVEIK
notes: Tested as Fab
[3]
  Flow Cytometry (MFI): 180 MFI
[4]
  EC50: 666 nM
[5]
  EC50: 65.3 nM

B5: CDCP1-007 Fab (Fab, V domains shown)
VH: EVQLVESGGGLVQPGGSLRLSCAASGFNIYSYYIHWVRQAPGKGLEWVASIYPYYGYTSYADSVKGRFTISADTSKNTAYLQMNSLRAEDTAVYYCARAYYGMDYWGQGTLVTVSS
VL: DIQMTQSPSSLSASVGDRVTITCRASQSVSSAVAWYQQKPGKAPKLLIYSASSLYSGVPSRFSGSRSGTDFTLTISSLQPEDFATYYCQQSYFYWPITFGQGTKVEIK
notes: Tested as Fab
[3]
  Flow Cytometry (MFI): 2.33 MFI
[4]
  EC50: 22.4 nM
[5]
  EC50: 18 nM

B6: CDCP1-002 Fab (Fab, V domains shown)
VH: EVQLVESGGGLVQPGGSLRLSCAASGFNLSYYYIHWVRQAPGKGLEWVASIYSSSSYTSYADSVKGRFTISADTSKNTAYLQMNSLRAEDTAVYYCARAYYGFDYWGQGTLVTVSS
VL: DIQMTQSPSSLSASVGDRVTITCRASQSVSSAVAWYQQKPGKAPKLLIYSASSLYSGVPSRFSGSRSGTDFTLTISSLQPEDFATYYCQQSYYYYPITFGQGTKVEIK
notes: Tested as Fab from a synthetic Fab-phage library; Used 89Zr-labeled for PET and 125I-labeled for Bmax; also called CDCP1-4A06; CDCP1 Fab
[3]
  Flow Cytometry (MFI): 1160 MFI
[4]
  EC50: 19.6 nM
[5]
  EC50: 0.651 nM

B7: CDCP1-006 Fab (Fab, V domains shown)
VH: EVQLVESGGGLVQPGGSLRLSCAASGFNLYYSYMHWVRQAPGKGLEWVAYISPYSGSTYYADSVKGRFTISADTSKNTAYLQMNSLRAEDTAVYYCARYSYSALDYWGQGTLVTVSS
VL: DIQMTQSPSSLSASVGDRVTITCRASQSVSSAVAWYQQKPGKAPKLLIYSASSLYSGVPSRFSGSRSGTDFTLTISSLQPEDFATYYCQQSSWHYHLFTFGQGTKVEIK
notes: Tested as Fab
[3]
  Flow Cytometry (MFI): 52.3 MFI
[6]
  binding result: no binding
[4]
  EC50: 3.34 nM
[5]
  EC50: 29.6 nM
